This is an account of results in PMC10149453, “Three segment ligation of a 104 kDa multi-domain protein by SrtA and OaAEP1” (Journal of Biomolecular Nmr, 2022).

This experiment has as its target T1, Ncc ligated to ZHk (P. furiosus, UniProt P58301 1-386; P58301 390-497).
T1 construct: Rad50 of P. furiosus, aa 1-386 (from Ncc); OaAEP1 ligation scar; replaces the natural 'LGD' (N from Ncc, GL from the N-terminus of ZHk); Rad50 of P. furiosus, Zn Hook domain, aa 390-497 (from ZHk); The ZHk part is uniformly deuterated and ILVM side-chain methyl labelled (isotopes only); also called Ncc-ZHk; Ncc-ZnHk; source: OaAEP1 ligation of Ncc (E. coli) to ZHk (E. coli, deuterated minimal …)
T1 chain: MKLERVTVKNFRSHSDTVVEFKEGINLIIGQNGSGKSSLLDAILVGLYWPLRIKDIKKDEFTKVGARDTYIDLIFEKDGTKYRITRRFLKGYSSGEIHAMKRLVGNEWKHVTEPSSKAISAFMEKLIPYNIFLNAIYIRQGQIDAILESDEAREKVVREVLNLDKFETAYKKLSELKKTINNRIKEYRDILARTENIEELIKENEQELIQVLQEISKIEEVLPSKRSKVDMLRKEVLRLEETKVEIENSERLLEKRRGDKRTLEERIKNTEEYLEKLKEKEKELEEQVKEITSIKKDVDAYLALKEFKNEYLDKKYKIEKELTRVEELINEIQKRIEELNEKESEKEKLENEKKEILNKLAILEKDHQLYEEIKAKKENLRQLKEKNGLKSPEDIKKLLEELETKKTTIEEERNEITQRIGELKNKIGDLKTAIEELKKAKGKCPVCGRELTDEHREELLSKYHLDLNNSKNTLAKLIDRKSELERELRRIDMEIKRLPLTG
As to the kind of experiment: co-purification on a Ni affinity column; purified ligation mixture after TEV cleavage, separated on a HisTrap HP column; a 6His tag remains only on the C-terminus of ZHk in Ncc-ZHk; unreacted products in the flowthrough, target in the elution. Conditions: both partners purified.

B1: Pf Rad50 C-Terminal coiled-coil-NBD (aa 503 – 882) after TEV cleavage (domain or fragment, P. furiosus)
chain: GTVAEQIRSIEEELNVVNLEKIEKNATEYEKLLEELRTLEGRIRGLAEDLKKLAPLEKKLAALIHKKQELEKELKELNTKLESFGFKSVEDLDSKLRELEEIYKRYLTLLNSKKELEITQREIAKAKETLEMSFEELAEVEADIERIEKKLSQLKQKYNEEEYKKKREEKEELEKELARLEAQKKELEKRRDTIKSTLEKLKAEKENRERVKKEIKDLEKAKDFTEELIEKVKKYKALAREAALSKIGELASEIFAEFTEGKYSEVVVRAEENKVRLFVVWEGKERPLTFLSGGERIALGLAFRLAMSLYLAGEISLLILDEPTPYLDEERRRKLITIMERYLKKIPQVILVSHDEELKDAADHVIRISLENGSSKVEVVS
notes: N-terminal Gly exposed by TEV cleavage; replaces residue 502 of Rad50; also called ccC; TEV-cleaved ccC; source: E. coli BL21 Codon+, co-expressed with Ncc, purified, tag removed with TEV protease; not shown: His6 (MK-HHHHHH-ENLYFQ, with TEV cleavage site), N-terminal, cleaved
As for B1, the binding result was “binds”.
